# Data reported in the RNAGym collection of RNA variant scans (doi:10.1101/gr.219683.116).
# B1: mRNA-splicing (parent)
# chain: AGUUGCUGCUGGGAGCUCCAGCACAGUGAAAUGGACAGAAGGGCAGAGCAA
# Variants of: B1
# Experiment: exon inclusion enrichment index; higher = more inclusion; WT1 exon 5 minigene, HEK293
row,Variant,exon inclusion enrichment index
1,AGUUGCUGCUGGGAGCUCCAGCACAGUGAAAAUGACAGAAGGGCAGAGCAA [U32A G33U],0.0657
2,AGUUGCUGCUGGGAGCUCCAGCACAGUGAAAAAGACAGAAGGGCAGAGCAA [U32A G33A],0.0558
3,AGUUGCUGCUGGGAGCUCCAGCACAGUGAAAACGACAGAAGGGCAGAGCAA [U32A G33C],0.181
4,AGUUGCUGCUGGGAGCUCCAGCACAGUGUGAUGGACAGAAGGGCAGAGCAA [A29U A30G],0.237
5,AGUUGCUGCUGGGAGCUCCAGCACAGUGUUAUGGACAGAAGGGCAGAGCAA [A29U A30U],0.0389
6,AGUUGCUGCUGGGAGCUCCAGCACAGUGUCAUGGACAGAAGGGCAGAGCAA [A29U A30C],0.119
7,AGUUGCUGCUGGGAGCUCCAGCACAGUCCAAUGGACAGAAGGGCAGAGCAA [G28C A29C],0.118
8,AGUUGCUGCUGGGAGCUCCAGCACAGUCGAAUGGACAGAAGGGCAGAGCAA [G28C A29G],0.405
9,AGUUGCUGCUGGGAGCUCCAGCACAGUCUAAUGGACAGAAGGGCAGAGCAA [G28C A29U],0.0556
10,AGUUGCUGCUGGGAGCUCCAGCACAGUGGUAUGGACAGAAGGGCAGAGCAA [A29G A30U],0.0289
11,AGUUGCUGCUGGGAGCUCCAGCACAGUGGGAUGGACAGAAGGGCAGAGCAA [A29G A30G],0.114
12,AGUUGCUGCUGGGAGCUCCAGCACAGUGGCAUGGACAGAAGGGCAGAGCAA [A29G A30C],0.0218
13,AGUUGCUGCUGGGAGCUCCAGCACACCGAAAUGGACAGAAGGGCAGAGCAA [G26C U27C],0.584
14,AGUUGCUGCUGGGAGCUCCAGCACACAGAAAUGGACAGAAGGGCAGAGCAA [G26C U27A],0.11
15,AGUUGCUGCUGGGAGCUCCAGCACACGGAAAUGGACAGAAGGGCAGAGCAA [G26C U27G],0.615
16,AGUUGCUGCUGGGAGCUCCAGCACUAUGAAAUGGACAGAAGGGCAGAGCAA [A25U G26A],0.136
17,AGUUGCUGCUGGGAGCUCCAGCACUUUGAAAUGGACAGAAGGGCAGAGCAA [A25U G26U],0.0827
18,AGUUGCUGCUGGGAGCUCCAGCACUCUGAAAUGGACAGAAGGGCAGAGCAA [A25U G26C],0.235
19,AGUUGCUGCUGGGAGCUCCAGCACAGUGAAAUCAACAGAAGGGCAGAGCAA [G33C G34A],0.0659
20,AGUUGCUGCUGGGAGCUCCAGCACAGUGAAAUCCACAGAAGGGCAGAGCAA [G33C G34C],0.0456
21,AGUUGCUGCUGGGAGCUCCAGCACAGUGAAAUCUACAGAAGGGCAGAGCAA [G33C G34U],0.0871
22,AGUUGCUGCUGGGAGCUCCAGCACAAGGAAAUGGACAGAAGGGCAGAGCAA [G26A U27G],0.311
23,AGUUGCUGCUGGGAGCUCCAGCACAAAGAAAUGGACAGAAGGGCAGAGCAA [G26A U27A],0.101
24,AGUUGCUGCUGGGAGCUCCAGCACAACGAAAUGGACAGAAGGGCAGAGCAA [G26A U27C],0.0175
25,AGUUGCUGCUGGGAGCUCCAGCACAGUGAAUAGGACAGAAGGGCAGAGCAA [A31U U32A],0.00762
26,AGUUGCUGCUGGGAGCUCCAGCACAGUGAAUGGGACAGAAGGGCAGAGCAA [A31U U32G],0.056

row,Variant,exon inclusion enrichment index
1,AGUUGCUGCUGGGAGCUCCAGCACAGUGAAUCGGACAGAAGGGCAGAGCAA [A31U U32C],0.301
2,AGUUGCUGCUGGGAGCUCCAGCACACUGAAAUGGACAGAAGGGCAGAGCAA [G26C],0.156
3,AGUUGCUGCUGGGAGCUCCAGCACAAUGAAAUGGACAGAAGGGCAGAGCAA [G26A],0.0943
4,AGUUGCUGCUGGGAGCUCCAGCACAUUGAAAUGGACAGAAGGGCAGAGCAA [G26U],0.137
5,AGUUGCUGCUGGGAGCUCCAGCACAGUGUAAUGGACAGAAGGGCAGAGCAA [A29U],0.0295
6,AGUUGCUGCUGGGAGCUCCAGCACAGUGCAAUGGACAGAAGGGCAGAGCAA [A29C],0.0903
7,AGUUGCUGCUGGGAGCUCCAGCACAGUGGAAUGGACAGAAGGGCAGAGCAA [A29G],0.272
8,AGUUGCUGCUGGGAGCUCCAGCACAGAUAAAUGGACAGAAGGGCAGAGCAA [U27A G28U],0.0261
9,AGUUGCUGCUGGGAGCUCCAGCACAGAAAAAUGGACAGAAGGGCAGAGCAA [U27A G28A],0.181
10,AGUUGCUGCUGGGAGCUCCAGCACAGACAAAUGGACAGAAGGGCAGAGCAA [U27A G28C],0.192
11,AGUUGCUGCUGGGAGCUCCAGCACAGUGACUUGGACAGAAGGGCAGAGCAA [A30C A31U],0.103
12,AGUUGCUGCUGGGAGCUCCAGCACAGUGACGUGGACAGAAGGGCAGAGCAA [A30C A31G],0.41
13,AGUUGCUGCUGGGAGCUCCAGCACAGUGACCUGGACAGAAGGGCAGAGCAA [A30C A31C],0.337
14,AGUUGCUGCUGGGAGCUCCAGCACAGCGAAAUGGACAGAAGGGCAGAGCAA [U27C],0.36
15,AGUUGCUGCUGGGAGCUCCAGCACAGAGAAAUGGACAGAAGGGCAGAGCAA [U27A],0.201
16,AGUUGCUGCUGGGAGCUCCAGCACAGGGAAAUGGACAGAAGGGCAGAGCAA [U27G],0.0622
17,AGUUGCUGCUGGGAGCUCCAGCACAUCGAAAUGGACAGAAGGGCAGAGCAA [G26U U27C],0.588
18,AGUUGCUGCUGGGAGCUCCAGCACAUGGAAAUGGACAGAAGGGCAGAGCAA [G26U U27G],0.394
19,AGUUGCUGCUGGGAGCUCCAGCACAUAGAAAUGGACAGAAGGGCAGAGCAA [G26U U27A],0.0316
20,AGUUGCUGCUGGGAGCUCCAGCACAGUGAAAUCGACAGAAGGGCAGAGCAA [G33C],0.179
21,AGUUGCUGCUGGGAGCUCCAGCACAGUGAAAUAGACAGAAGGGCAGAGCAA [G33A],0.0129
22,AGUUGCUGCUGGGAGCUCCAGCACAGUGAAAUUGACAGAAGGGCAGAGCAA [G33U],0.0261
23,AGUUGCUGCUGGGAGCUCCAGCACAGUGAUAUGGACAGAAGGGCAGAGCAA [A30U],0.0645
24,AGUUGCUGCUGGGAGCUCCAGCACAGUGACAUGGACAGAAGGGCAGAGCAA [A30C],0.184
25,AGUUGCUGCUGGGAGCUCCAGCACAGUGAGAUGGACAGAAGGGCAGAGCAA [A30G],0.182
